According to patent publication US20250313632A1:
Blank lines part the entries; values can stand above or below the binder they belong to.

What was measured:
[1] = molecular target: human B7-H3 protein (human) (UniProt Q5ZPR3); experiment: Octet (BLI) epitope binning on captured human B7-H3; competitor CA84D
[2] = molecular target: human B7-H3 protein (human) (UniProt Q5ZPR3); experiment: Octet (BLI) epitope binning on captured human B7-H3; competitor 72D1D11
[3] = molecular target: human B7-H3 protein (human) (UniProt Q5ZPR3); experiment: Octet (BLI) epitope binning on captured human B7-H3; competitor AHP05562
[4] = molecular target: human B7-H3 protein (human) (UniProt Q5ZPR3); experiment: Octet (BLI) epitope binning on captured human B7-H3; competitor AHP06345
[5] = molecular target: human B7-H3 expressed on A375 tumor cells (human) (UniProt Q5ZPR3); experiment: flow cytometry on A375.S2 cells, MFI(647); unit from the axis Conc (nM)
[6] = molecular target: human B7-H3 expressed on A375 tumor cells (human) (UniProt Q5ZPR3); experiment: flow cytometry on A375 cells, MFI(PE); unit from the axis Conc(nM)
[7] = molecular target: human B7-H3 (4Ig) protein (his tag) (human) (UniProt Q5ZPR3); experiment: SPR (Biacore T200), antibody captured on Protein A chip, B7-H3 injected, 1:1 model
[8] = molecular target: human B7-H3 expressed on A375 tumor cells (human) (UniProt Q5ZPR3); experiment: flow cytometry on A375 cells, MFI(PE); unit from the axis Conc (nM)
[9] = molecular target: human B7-H3 expressed on A375 tumor cells (human) (UniProt Q5ZPR3); experiment: as above; remark: listed apart in the source
[10] = molecular target: human B7-H3 expressed on A375 tumor cells (human) (UniProt Q5ZPR3); experiment: as above; remark: listed apart in the source
[11] = molecular target: human B7-H3 expressed on A375 tumor cells (human) (UniProt Q5ZPR3); experiment: as above; remark: listed apart in the source
[12] = molecular target: human B7-H3 expressed on A375 tumor cells (human) (UniProt Q5ZPR3); experiment: flow cytometry on A375 cells, MFI(647); unit from the axis Conc (nM); fit value of a flat curve

B4: 72D1D11-z9 (antibody, V domains shown)
VH: QVQLVQSGSELKKPGASVKVSCKASGYTFTNLGLNWVRQAPGQGLKWMGWINTAGGQPTYAEDFKGRCVFSLDTSVSTAYLQISSLKAEDTAVYFCARDDGYYYTMDYWGQGTTVTVSS
VL: DIVMTQTPLSLPVTPGEPASISCRSSQSLVHSNGKTYLHWYLQKPGQSPQLLIYKVSNRFSGVPDRFSGSGSGTDFTLKISRVEAEDVGVYYCSQSTHVPWTFGGGTKLEIK
- EC50 [8]: 0.51 nM

B5: 72D1D11-z11 (antibody, V domains shown)
VH: QVQLVQSGSELKKPGASVKVSCKASGYTFTNLGLNWVRQAPGQGLKWMGWINTAGGQPTYAEDFKGRCVFSLDTSVSTAYLQISSLKAEDTAVYFCARDDGYYYTMDYWGQGTTVTVSS
VL: DIVMTQSPLSLPVTPGEPASISCRSSQSLVHSNGKTYLHWYLQKPGQSPQLLIYKVSNRFSGVPDRFSGSGSGTDFTLKISRVEAEDVGVYYCSQSTHVPWTFGGGTKLEIK
- EC50 [8]: 0.36 nM

B6: 72D1D11-z12 (antibody, V domains shown)
VH: QVQLVQSGSELKKPGASVKVSCKASGYTFTNLGLNWVRQAPGQGLKWMGWINTAGGQPTYAEDFKGRCVFSLDTSVSTAYLQISSLKAEDTAVYFCARDDGYYYTMDYWGQGTTVTVSS
VL: DIVMTQSPLSLPVTPGEPASISCRSSQSLVHSNGKTYLHWYLQKPGQSPQLLIYKVSNRFSGVPDRFSGSGSGTDFTLKISRVEAEDVGVYFCSQSTHVPWTFGGGTKLEIK
- EC50 [8]: 0.35 nM

B7: 72D1D11-z13 (antibody, V domains shown)
VH: QIQLVQSGSELKKPGASVKVSCKASGYTFTNLGLNWVKQAPGQGLKWMGWINTAGGQPTYAEDFKGRCVFSLDTSVSTAYLQISSLKAEDTAVYFCARDDGYYYTMDYWGQGTTVTVSS
VL: DIVMTQTPLSLPVTPGEPASISCRSSQSLVHSNGKTYLHWYLQKPGQSPQLLIYKVSNRFSGVPDRFSGSGSGTDFTLKISRVEAEDVGVYYCSQSTHVPWTFGGGTKLEIK
- EC50 [8]: 0.36 nM

B9: 72D1D11-z14 (antibody, V domains shown)
VH: QIQLVQSGSELKKPGASVKVSCKASGYTFTNLGLNWVKQAPGQGLKWMGWINTAGGQPTYAEDFKGRCVFSLDTSVSTAYLQISSLKAEDTAVYFCARDDGYYYTMDYWGQGTTVTVSS
VL: DIVMTQTPLSLPVTPGEPASISCRSSQSLVHSNGKTYLHWYLQKPGQSPQLLIYKVSNRFSGVPDRFSGSGSGTDFTLKISRVEAEDVGVYFCSQSTHVPWTFGGGTKLEIK
- EC50 [8]: 0.57 nM

B16: 72D1D11-p1 (antibody, V domains shown)
VH: QIQLVQSGPELKKPGETVKISCKASGYTFTNLGLNWVKQAPGKGLKWMGWINTAGGQPTYAEDFKGRCAFSLETSASTAYLQINNLKNEDTATYFCARDDGYYYTMDYWGQGTSVTVSS
VL: DIVMTQTPLSLPVSLGDQASISCRSSQSLVHSNAKTYLHWYLQKPGQSPKLLIYKVSNRFSGVPDRFSGSGSGTDFTLKISRVEAEDLGVYFCSQSTHVPWTFGGGTKLEIK
- EC50 [11]: 0.49 nM

B17: 72D1D11-p2 (antibody, V domains shown)
VH: QIQLVQSGPELKKPGETVKISCKASGYTFTNLGLNWVKQAPGKGLKWMGWINTAGGQPTYAEDFKGRCAFSLETSASTAYLQINNLKNEDTATYFCARDDGYYYTMDYWGQGTSVTVSS
VL: DIVMTQTPLSLPVSLGDQASISCRSSQSLVHSQGKTYLHWYLQKPGQSPKLLIYKVSNRFSGVPDRFSGSGSGTDFTLKISRVEAEDLGVYFCSQSTHVPWTFGGGTKLEIK
- EC50 [11]: 0.54 nM

B18: 72D1D11-z3p6 (antibody, V domains shown)
VH: QVQLVQSGSELKKPGASVKVSCKASGYTFTNLGLNWVRQAPGQGLEWMGWINTAGGQPTYAEDFKGRFVFSLDTSVSTAYLQISSLKAEDTAVYYCARDRGYYYTMDYWGQGTTVTVSS
VL: DIVMTQSPLSLPVTPGEPASISCRSSQSLVHSNAKTYLHWYLQKPGQSPQLLIYKVSNRFSGVPDRFSGSGSGTDFTLKISRVEAEDVGVYYCSQSTHVPWTFGGGTKLEIK
- EC50 [12]: 20900 nM

More lines, now with the values ahead:

- inhibition ratio [1]: -8%
- inhibition ratio [2]: 98.9%
- inhibition ratio [3]: -22.4%
- inhibition ratio [4]: -11.5%
- EC50 [5]: 0.7 nM
B1: 429H9F10 (antibody, V domains shown)
VH: QIQLVQSGPELKKPGETVKISCKASGYTFTYYGLNWVKQAPGKGLRWMGWINTSSGVPTYADDFKGRFAISLESSASTVFLEISNLKNEDTAAYFCAKDDGYFYTMDHWGQGTSVTVSS
VL: DIVMTQPPLSLPVSLGDQASISCRSSQSLVHNNGKTYLHWYLQKPGQSPKLLIYKVSNRFSGVPDRFSGSGSGTDFTLKISRVETEDLGVYFCSQSTQVPWTFGGGTKLEIK

- inhibition ratio [1]: -18.3%
- inhibition ratio [2]: -32.6%
- inhibition ratio [3]: -24.4%
- inhibition ratio [4]: 90%
- EC50 [5]: 0.19 nM
B2: 312E1E2 (antibody, V domains shown)
VH: QVQLQQSGPELVRPGVSVKISCKGSGYTFTDYAMHWVKQSHAKSLEWIGIVSTHYGNTNYNQNFKGKATMTVDKSSSTVYMELARLTSEDSAIYYCARSEGLRLDWFAHWGQGTLVTVSA
VL: DIQMTQSPASLSASVGEIVTITCRASENIYSYLAWYQQKQGKSPHLLVYNAKTLAEGVPSRFSGSGSGTQFSLKISRLQPEDFGSYYCQNHYVFPFTFGSGTKLEIK

- inhibition ratio [1]: 80.1%
- inhibition ratio [3]: -3.53%
- inhibition ratio [4]: 5.92%
- EC50 [6]: 2.4 nM
- Kd [7]: 0.52 nM
- koff [7]: 0.000862 s⁻¹
- kon [7]: 1.66e+06 M⁻¹ s⁻¹
B3: AHP05564 (antibody, V domains shown)
VH: EVQLVETGGGVVQPGRSLRLSCAASGFTFSSSGMHWVRQAPGKGLEWVAVISYDVTNKYYVDSVKGRFTISRDNSENTLYLQMNSLRAEDTGVYYCVRDGGPRWLGWYFDLWGRGTLVTVSS
VL: NIQMTQSPSSQSASVGDRVTITCRANQAIANSLAWYQQKPGKAPKLLLFGTSLLHSGVPSRFSGSGSGTEYTLTISSLQPDDFGTYYCQQYFSFPRTFGQGTQVDVY

- inhibition ratio [1]: -6.3%
- inhibition ratio [2]: 95.4%
- inhibition ratio [3]: 90.6%
- inhibition ratio [4]: -12.1%
- EC50 [9]: 0.17 nM
- EC50 [10]: 0.25 nM
- Kd [7]: 0.196 nM
- koff [7]: 0.000111 s⁻¹
- kon [7]: 567000 M⁻¹ s⁻¹
B8: 81C8A1 (antibody, V domains shown)
VH: QVTLKESGPGILQPSQTLSLTCSFSGFSLSTSGMGVSWIRQPPGKGLEWLAHIYWDDDRRYNPSLKSRLTISRDTSRNQVFLQITTVDTADTATYYCARSPYGSEAYWGQGTLVIVSA
VL: QIVLSQSPTILSAFPGEKVTMTCRASSSVSFIQWYQQKSGSSPKPWIYSPSNLASGVPTRFSGSGSGTSYSLTIGRVEAEDAATYYCQQWSSYPWTFGGGTKVEIK

- EC50 [8]: 0.47 nM
B10: 72D1D11-z15 (antibody, V domains shown)
VH: QIQLVQSGSELKKPGASVKVSCKASGYTFTNLGLNWVKQAPGQGLKWMGWINTAGGQPTYAEDFKGRCVFSLDTSVSTAYLQISSLKAEDTAVYFCARDDGYYYTMDYWGQGTTVTVSS
VL: DIVMTQSPLSLPVTPGEPASISCRSSQSLVHSNGKTYLHWYLQKPGQSPQLLIYKVSNRFSGVPDRFSGSGSGTDFTLKISRVEAEDVGVYYCSQSTHVPWTFGGGTKLEIK

- EC50 [8]: 0.32 nM
B11: 72D1D11-z16 (antibody, V domains shown)
VH: QIQLVQSGSELKKPGASVKVSCKASGYTFTNLGLNWVKQAPGQGLKWMGWINTAGGQPTYAEDFKGRCVFSLDTSVSTAYLQISSLKAEDTAVYFCARDDGYYYTMDYWGQGTTVTVSS
VL: DIVMTQSPLSLPVTPGEPASISCRSSQSLVHSNGKTYLHWYLQKPGQSPQLLIYKVSNRFSGVPDRFSGSGSGTDFTLKISRVEAEDVGVYFCSQSTHVPWTFGGGTKLEIK

- EC50 [10]: 0.23 nM
B12: 81C8A1-z3 (antibody, V domains shown)
VH: QVTLKESGPALVKPTQTLTLTCTFSGFSLSTSGMGVSWIRQPPGKALEWLAHIYWDDDRRYNPSLKSRLTISKDTSKNQVVLTMTNMDPVDTATYYCARSPYGSEAYWGQGTLVTVSS
VL: EIVLTQSPDFQSVTPKEKVTITCRASSSVSFIQWYQQKPDQSPKPWIYSPSNLASGVPSRFSGSGSGTDFTLTINSLEAEDAATYYCQQWSSYPWTFGQGTKVEIK

- EC50 [10]: 0.28 nM
B13: 81C8A1-z4 (antibody, V domains shown)
VH: QVTLKESGPALVKPTQTLTLTCTFSGFSLSTSGMGVSWIRQPPGKALEWLAHIYWDDDRRYNPSLKSRLTISKDTSKNQVVLTMTNMDPVDTATYYCARSPYGSEAYWGQGTLVTVSS
VL: EIVLSQSPDFQSVTPKEKVTITCRASSSVSFIQWYQQKPDQSPKPWIYSPSNLASGVPSRFSGSGSGTDYTLTINSLEAEDAATYYCQQWSSYPWTFGQGTKVEIK

- EC50 [10]: 0.39 nM
B14: 81C8A1-z7 (antibody, V domains shown)
VH: QVTLKESGPALVKPTQTLTLTCTFSGFSLSTSGMGVSWIRQPPGKALEWLAHIYWDDDRRYNPSLKSRLTISRDTSKNQVVLTMTNMDPVDTATYYCARSPYGSEAYWGQGTLVTVSS
VL: EIVLTQSPDFQSVTPKEKVTITCRASSSVSFIQWYQQKPDQSPKPWIYSPSNLASGVPSRFSGSGSGTDFTLTINSLEAEDAATYYCQQWSSYPWTFGQGTKVEIK

- EC50 [10]: 0.25 nM
B15: 81C8A1-z8 (antibody, V domains shown)
VH: QVTLKESGPALVKPTQTLTLTCTFSGFSLSTSGMGVSWIRQPPGKALEWLAHIYWDDDRRYNPSLKSRLTISRDTSKNQVVLTMTNMDPVDTATYYCARSPYGSEAYWGQGTLVTVSS
VL: EIVLSQSPDFQSVTPKEKVTITCRASSSVSFIQWYQQKPDQSPKPWIYSPSNLASGVPSRFSGSGSGTDYTLTINSLEAEDAATYYCQQWSSYPWTFGQGTKVEIK
